Test results as given in US20230002480A1.

Legend:
Experiment in all cases: cell-based or functional assay
[1] = target: HIV-1 Env of pseudovirus 191084 B7-19 (HIV-1)
[2] = target: HIV-1 Env of pseudovirus ZM214M.PL15 (clade C) (HIV-1)
[3] = target: HIV-1 Env of pseudovirus 3415.v1.c1 (HIV-1)
[4] = target: HIV-1 Env of pseudovirus BF1266.431a (clade C (T/F)) (HIV-1)
[5] = target: HIV-1 Env of pseudovirus Du172.17 (clade C) (HIV-1)
[6] = target: HIV-1 Env of pseudovirus 3817.v2.c59 (HIV-1)
[7] = target: HIV-1 Env of pseudovirus 0260.v5.c36 (HIV-1)
[8] = target: HIV-1 Env of pseudovirus BJOX010000.06.2 (HIV-1)
[9] = target: HIV-1 Env of pseudovirus Ce2060_G9 (clade C (T/F)) (HIV-1)
[10] = target: HIV-1 Env of pseudovirus ZM233M.PB6 (clade C) (HIV-1)

| Substance | IC50 [1] [µg/mL] | IC80 [1] [µg/mL] | MPI [1] | IC50 [2] [µg/mL] | IC80 [2] [µg/mL] | MPI [2] | IC50 [3] [µg/mL] | IC80 [3] [µg/mL] | MPI [3] | IC50 [4] [µg/mL] | IC80 [4] [µg/mL] | MPI [4] | IC50 [5] [µg/mL] | IC80 [5] [µg/mL] | MPI [5] | IC50 [6] [µg/mL] | IC80 [6] [µg/mL] | MPI [6] | IC50 [7] [µg/mL] | IC80 [7] [µg/mL] | further results |
| --- | --- | --- | --- | --- | --- | --- | --- | --- | --- | --- | --- | --- | --- | --- | --- | --- | --- | --- | --- | --- | --- |
| N49P7.2 (antibody) | 0.102 | 0.29 | 100 | 0.559 | 4.53 | 100 | 0.381 | 1.58 | 100 | 0.029 | 0.159 | 100 | 0.29 | 1.08 | 100 | 9.83 | > 50 | 68 | 0.644 | 1.8 | MPI [7]: 100; IC50 [8]: 0.267 µg/mL; IC80 [8]: 1.11 µg/mL; MPI [8]: 100; IC50 [9]: 0.821 µg/mL; IC80 [9]: 2.81 µg/mL; MPI [9]: 100; IC50 [10]: 0.475 µg/mL; IC80 [10]: 2.14 µg/mL; MPI [10]: 99 |
| N49P11 (antibody) | 0.065 | 0.276 | 100 | 1.35 | 8.98 | 100 | 1.86 | 10.3 | 100 | 0.998 | 7.13 | 100 | 5.65 | 17.9 | 100 | 4.72 | 15.9 | 100 | 0.438 | 1.47 | MPI [7]: 100; IC50 [8]: 6.81 µg/mL; IC80 [8]: 21.8 µg/mL; MPI [8]: 100; IC50 [9]: 3.33 µg/mL; IC80 [9]: 13.2 µg/mL; MPI [9]: 100; IC50 [10]: 5.92 µg/mL; IC80 [10]: 18.5 µg/mL; MPI [10]: 100 |
| N49P18.1 (antibody) | 5.59 | 16.9 | 98 | > 50 | > 50 | 20 | > 50 | > 50 | 48 | 3.48 | 20.8 | 93 | 6.52 | 21.3 | 92 | > 50 | > 50 | 34 | 16.2 | 47.8 | MPI [7]: 81; IC50 [8]: > 50 µg/mL; IC80 [8]: > 50 µg/mL; MPI [8]: 39; IC50 [9]: > 50 µg/mL; IC80 [9]: > 50 µg/mL; MPI [9]: 37; IC50 [10]: 38.4 µg/mL; IC80 [10]: > 50 µg/mL; MPI [10]: 57 |
